The DeepSol protein solubility set

test: soluble on expression in E. coli; label from the status in PepcDB or PDB records

Sequence | soluble on expression in E. coli
MSLERNYEESALFEHQFWLKVLTDHAQFLLDALAPKEKEDIKKATYFVETFTNLLNKVRNVNLMAFSKEAEQAAKEIRAFKLNIIQKQLEGKITIHFTPTFINHMVNEVEEYIAVLEFLKKGEVPPVFHELHYHLVWLTDAAGHAGSISGGLDLVEKRLKEKSEEFTKHFEQFYLKAVEMTGYLRTELHHFPALKKFTKDVSLELKLFSHFLHEVEELELSNEVLSVLSARMADHMAREECYYLLKLAQSSGLEMPKCNPLEGHHHHHH | soluble
MSLESVGDVLKRQPSRFHYQDLVQKIMKDPDVAAFVQQESLNQDELNRSISKFNQYITERDKFLRGDTDYIAKGYKPILVMNHGYADVSYEETPELIAAEKEAAIKKRLNLINFPSSLKNVSFLDVYRDDVQRLTVLKRMIEFVNDYPNNLKGLYLYGDFGVGKSFMVAALAHDLSEKRGVSSTLLHYPSFVIDVKNAIGDGNVKTLVDEIKLSEVLILDDIGAEQSTAWVRDEILQVILQYRMQENLPTFFTSNFNFEDLEKHFAKGKNGNDETWEARRVMERIRYLAEETRLEGVNRREGHHHHHH | soluble
MSLETAGQIIGGETAAVLIRQKAGEPIELGDLLVAEGEGYTILQVKDLRYSSQIPQGMRELASGFNLEGYGREVELLEPELRNYIIAEARPILHVRDGQPMIPKRLPRFFREVRRIREGDLDFLERPGNPVFLGNVRSGSKVLDTPVYVDAVDAITHHILIPATTGRGKSNLVKVMLWSLAEMDRVGILVLDPHDEYYGRNEAGLGRHPSDNVVYYSPDAPVGGNTLTINLRSLRPEHFEGIIPFTQAQEQAIARYYNEYGDGWILKIVEGEELPGVQPVTLNVLRRIFDVILGVHLDDGKIKSRGGVFRERGGESTIKDIAASLEDGKNRCGGHLKAHGRGEGHHHHHH | not soluble
MSLETSDAPHSSLVGNSVFVTHPDLKRLFQMAVSKSVREILIPAVEKAANMAVQSTVNIVLKDFATEVDEQKLKTAAINMVQYLAQNVAHSISVPLLKDTIRNTTQSLTPNLINMTNSPIAELNTAIDDNIAIAVSPIEKAAVERAIQEVNEKLVQAVAVRRYHLERRSDQPFVAQNINRFSLNLPDPLGLKPTGVTREQFSLYEQFPASMPSDSSRSPLETILAQEGHHHHHH | soluble
MSLETWYDFDLPLDRTDPITIIHFNDVYNIESRCDGTGGVSRFVTALQSFQHKHPLILFSGDVLNPSVMSTYTRGRHMVPFLNLLKIHTACFGNHDFDFGIDELEYAVGSCSFPWLISNVFEKTGQTGLPLANGMKYRLFEWQGIRVGIIGLVEKEWLDTLACIDKDDVVYVDFVEAANCLCRILRQKECELIIALTHMRAPNDERLAKEAEDIDLILGGHDHDYYGLQRIGNIPVVKSGTDFRDFTVITIHPGQGSRLDASSLPTPPTQNKFGSTTFVSEEAARREAAVTAEMFKGPLLPTTVEGGEEVMPFFLGGSIVEWSRVRVDPERFEKNKHVELLVKKYEQNLKKQMKQILVDAACDLETRFSVIRTSESNVGNWLCDLMRRECRADIAILNSGTIRSDCLFPPGPFRFGDLAAMLPMTDTLCVIAVHGNVLLQALENAVSQLPKTEGRFLQVAGIRFAFNSSKPVGQRVVRDSVKVAQDACGRVHSGAATPVGEGKKSESDYLPLDENRVYSVATKTYLAQGRDGFHMLSKCPVLVEDELLPPLPTMVRSALSMAEMANGIKRPHSRITFKRLTEGHHHHHH | not soluble
MSLEVIKHDGPGRLGVIRLEPPVQTPALAGVDFTLSPFNSFFYPKDYKEYDFNLAPAIPLSYYTPDEIIKKAVKRLWEVDYSKFNAFYFPALKRTKHYEELFKIIEENDFDAIYIGNSKSMIKDYRGFVFTMRELREKFPNAVLITDLEPFFYPLAVYLGIDAFDIRSLKIYSYEGLGFTQFSPIIWDEPKEDPVEYAKKIIRLIRIAIHEGKLRYLVENFLPTSMNAGILRIADRENIEYLEKYTPVDDKTVVFISDYSMTRPEVYRWAKRVRERFEPPKDIELLLILPCSAKKPYSRSRSHTLYRSAVKEALGEKMHRVHELIVTSPYGVVPREWEWIAKYDIVVTGHWSEREVRLAGELLADVLEKYPDIPIIAHVEGGYREAVKLAMELSGRDVIFTAKGNSTTSRESLANLTKTLKEFDVREGHHHHHH | not soluble
MSLEWCKNRLEITGRSVFVDIMQQWVTGEEVPLYRHAIQQSIRLFLAGCAGILKPVKCMEYPPFPRLVSHGTGSAVASNLAFQHWLDLLLKDAVLDGDTIRQIDRIYLQSGIASVKWETIPEGARQIITQLMARQYPDWFGVASWSSHINGADCWTKLGVMQEHACNCDMLMIIPTRLAIELNGNSQLLTGVSTTHDLYSHLYGMAWPSGQNIIWQRDRINSLRLDFDSPSYPPSAELMGELSAVFDCEIRHWYQEPVNGIRGYDCYDRGDHVDSGEYGAGPFLPPLKVEEVTVNGQEEAAEGHHHHHH | soluble
MSLFFDKVIRLNIGGKRFDTHKSTLMKFDGYFKKFLQTPGSSLVDPIFVDRSPTYFDIVLNFMRKGRADLPETLKDLKMLLGEAEYYELTELCDDCKREISRLDIGIESEPFYEIIPEPSVVARNNNNTIPNNVVEVGS | soluble
MSLFMPPVFPAHWHVSQPVLIADTFSSLVWKVSLPDGTPAIVKGLKPIEDIADELRGADYLVWRNGRGAVRLLGRENNLMLLEYAGERMLSHIVAEHGDYQATEIAAELMAKLYAASEEPLPSALLPIRDRFAALFQRARDDQNAGCQTDYVHAAIIADQMMSNASELRGLHGDLHHENIMFSSRGWLVIDPVGLVGEVGFGAANMFYDPADRDDLCLDPRRIAQMADAFSRALDVDPRRLLDQAYAYGCLSAAWNADGEEEQRDLAIAAAIKQVRQTSYEGHHHHHH | soluble
MSLFQVPDSEGGRAGSRAMKPPGGESSNLFGSPEEATPSSRPNRMASNIFGPTEEPQNIPKRTNPPGGKGSGIFDESTPVQTRQHLNPPGGKTSDIFGSPVTATSRLAHPNKPKDHVFLCEGEEPKSDLKAARSIPAGAEPGEKGSARKAGPAKEQEPMPTVDSHEPRLGPRPRSHNKVLNPPGGKSSISFYEGHHHHHH | soluble
MSLFRVGRKIARSIHKAITSEDSVDVSELDGVRSLHLGSDTIQSSMRIKDPYALELRYSRGMMVYLLFQKQPRDLVVLGLGGGSIPKYVYHHLPQVKTRVVEINPRIIEVARSHFFTPENDERFEIIEGDAAAFLRDNPATTSMLMMDAFGSNGLPPDLCSQDFFDSCFEALTLDGMCAINLWGSDKHYDVYLQRIETSFHGRILVMPTGRPGNVVVFGFKRAPNDLRWSTLRVRAKALEAEHKIEFLEFVERLREHNPSTSNRLLLESEGHHHHHH | soluble
MSLFYANMKEFELIKLVERLFGDEDVITPAGKHDAAYVKIGNRLIVLTCDTVNEKSDFPPYMLPEEMGWMAIAVTLSDVAACGARPLYFLSSISLKSIEFFEDILLGIKRCADRFGVKVVGGDIDFSEITTIAGFAIGEARRHITRRGAKVGEGVFITDLPGKAQLCLEMLERGAKREELPYAEKLYTPVPRIEEGMRIARYASAMTDVSDSLAVSLHQISQSSNVKIVLDNIVLSHLSPAENALELFLYGGGDFELVYTAKSSDDGIRIGRVERGKGVFAEIDGKTFEVEFRGYSHFEGHHHHHH | soluble
MSLGAWPTAPITIVVPFAAGQTGDIIARLLGKELAERLKQPFVVDNKGGGGGRIGTAFVAKAKPDGYTLLMTSTGPYAIAPALYPRTMQYDPVRDFTGIAETATTPQIIAVSPKSGINTFADLVKQAKKSDMSYGSAGNGSTQHLTMELLKKELNFPLVHVPFKGSSESKTQVISGMIPVTSDSLPAIYTNIKSGQMKAIAVVDKQRSAYLPDVPTLAESGFPSLSTVAFFGLVAPKNTPKEVVNLLNKNLTEIYRTPDFQQKMKELAMTPPAEKTAEQFTAYLTEEVARWKKIVQDSNVKVEEGHHHHHH | soluble
MSLGDKKYVKRLLGSCWDYPFSGSGVGITEREAVLRAFGEYTERFIGMYYQFIARDKMIFATYRDLDKMGLNALSPHSIQLFHKRQYQQKDFPYSKFCEDSLIKWMPGKSLITNEEVYVPASFVLTPYIPERGENLISPSVTTGSAAHSNLTQAIINGIYEVIERDTARIYWYGNLRSTKLKVDNKDIKDFIDFIKNKKDIEVIITYMENDLNIPTFMASIIIGKNNRKSVVTGLSSNINPINGLKKAITEAFHTYLWKLLTQPSPKQQLENFTDHVALYLDPKMYIHFIDFINSNEELSLQSLILASAVYSFDSAERHLNMLIRLLKNKVLDLIVVDITPEILRKTGIHVVKVIIPPLLSILAGHIQYLGDKRLYNEGHHHHHH | not soluble
MSLGDKPLQTVLHDEHYGGLDFSLGDSKYSGELEYNKSYMVNFSVNLPAEGSVKVAKAYVYWVWSKKDLEGIYPQFNASIINSETTAPLPKGHMYTDTKGFVSRYDYFSGMNTYDLSGKISKSGNYSISLVNTDKNGSTFCVQGIGLLLVYEDPKSPAIEYWINEGCDMLYADYGITPEVATTTTYFKGDIDPDNVTDARLITVSPSGGYSSGREARNKLFFNEETRSIPVLGDIVQLLFGSGKVWENVYQTNETVQIALDEKPVADYLEPTENFASIQDNGDYLLATNAILVLKFKGPESSETKGSEGHHHHHH | soluble
MSLGEEAAGEGGEAEKTITINVGLLVDETGPTSDVGKGYSLGAELAFKYFNEKGIYTKDGVRVNINYIKRDYAYNPTTAEEYYREFRDRYGVIAIIGWGTADTEKLSDQVDTDKITYISASYSAKLLVKPFNFYPAPDYSTQACSGLAFLASEFGQGKLALAYDSKVAYSRSPIGAIKKAAPSLGLQVVGDYDLPLRATEADAERIAREMLAADPDYVWCGNTISSCSLLGRAMAKVGLDAFLLTNVWGFDERSPQLIGEGGYGKVFGISPFIYPMFGQDVEGIQTIFEAARMNGVSEDQINLRVVQGFVNVWLLIKAIESVTSQDLQERGGEALKEALEANTFDLGGITADTIDYEPGFHLAYRKVFIIKLGENGELQLMGKFEAPSQVDCARYTIEEGHHHHHH | soluble
MSLGELLFNRSFENTKPVSESNSWYTCYRGDVKEAKWWHSGYEEPKWYLLADGRKEEKLPLIFNNYWPSAHGKYFLQIDNRKKQIPTLLVQERIYIEKGKGYTVSGLFSSGGYLSEEKYSKESVPVTIAIYKEGDFHTPLSKTELAVNTNQFILYSSSLDATEYEGWCTYTIEVPAGGCVGIDLLSLMADDVIKGWKRESVERIKNELRPRTMRMPGGCFTSLYDWRSGIGPREERPVSYDTWWGCELLNDVGTFELVDLCEAVGAEPFFCVPVMFNNEYSAADWVDFCNNPTNAQRIAYGRTKPLNVKYWELENEPYRRFDAVTYANRCVDFAKAMKAKDPSIKIAVGNYWLFNKKFKEMLEIVGPYVDLITNRGGTPEEMRADIVILDAYNKAHGTDIKLCHTEFRAPVTRNEGNTDGLNQKDTGGEETLFNASIRWGFAMNMVEQYIAYQNMGGSFFTANYTNLSDGWGECLINTPKEGTYLNAPGVAFALLNSLDIAYPQIIEQEKENQDIVIQAAWNKRRDKLTLVVLNFSQNTQPCKIDFSQIKKSFRVRKGMKIAPQSDLSFNTLQHPEEVKVESFVPSTGKMMKLGLPGNSLIVVELQAERSHGIHVNASTGNEGHHHHHH | not soluble
MSLGENVEFKEFLGNFHLKEGRFRQLACQMNHRIIMGKGVALYVVGVSDSGEIKGIDENKFSETIEVLKKLATEIEAEVSSVERHEVNGGYVGLVEIRKTKAKEHILVGTAGHVDHGKSTLVGCLITGKPDDGDGATRVYLDVLKHEIERGLSAEISFAVFGYKDGKVLRMKNPLSKAEKAMVVETADKLVSFVDTVGHEPWLRTTIRGLLGQKVDYGLLVVAANDGVMRTTKEHLGIMLAMDLPVIVAVTKADMVDDARLSEVLQEISATLRRVGRVPTVLKSRHDARKAAEMVKSNKLLVPVVITSAVTLEGYDILEEIFLHLPKRYTADEDFLMYIDKIYSVTGVGTVVSGSVKSGELAEGDEVYIGPFQDGSFRRVRIQSIEMHHYRIDRAKAGDIIGAAVKGVRYDELRRGMVISRKEPRAVWEFDAEIYVFTHPTLISVGYEPVMHVETISETVTFVEMDKEYLKPGDRGIVRMKFKYHPHFVYEGQKFIFREGRSKGMGEIIRVFEGHHHHHH | soluble
